In paper PMC2886590:

Target: MLL PHD3 finger (residues 1565-1627), GST cleaved (human) (UniProt Q03164)
Assay: other fluorescence titration

MLL PHD3 finger (residues 1565-1627), GST cleaved (human), sequence (Q03164 1565-1627): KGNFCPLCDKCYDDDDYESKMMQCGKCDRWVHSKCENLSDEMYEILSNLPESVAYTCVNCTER

Q: “H3K4me3 peptide (12-mer histone tail peptide)” was tested. Which Kd did it give?
A: 19 µM
